In patent US20130251728A1 (Regeneron, published 2013):

T1: monkey (Macaca fascicularis) GCGR (full-length, on HEK293 reporter cells) (monkey (Macaca fascicularis), UniProt P47871 26-477 (human entry))
T1 chain: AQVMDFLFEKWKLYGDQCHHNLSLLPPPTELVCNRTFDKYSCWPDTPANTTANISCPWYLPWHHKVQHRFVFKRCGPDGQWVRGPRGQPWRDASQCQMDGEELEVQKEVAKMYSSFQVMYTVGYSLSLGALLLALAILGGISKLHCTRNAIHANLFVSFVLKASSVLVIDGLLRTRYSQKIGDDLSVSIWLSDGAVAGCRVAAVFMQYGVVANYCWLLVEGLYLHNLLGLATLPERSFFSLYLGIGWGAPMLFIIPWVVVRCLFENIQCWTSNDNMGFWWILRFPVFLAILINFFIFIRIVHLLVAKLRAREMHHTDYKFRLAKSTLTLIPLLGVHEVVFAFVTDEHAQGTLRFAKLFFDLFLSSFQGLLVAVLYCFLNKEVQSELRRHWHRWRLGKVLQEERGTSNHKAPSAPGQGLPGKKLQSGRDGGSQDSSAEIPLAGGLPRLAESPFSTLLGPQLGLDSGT

T2: hGCGR-mmh (human)
T2 construct: also called REGN547; monovalent hGCGR
T2 chain: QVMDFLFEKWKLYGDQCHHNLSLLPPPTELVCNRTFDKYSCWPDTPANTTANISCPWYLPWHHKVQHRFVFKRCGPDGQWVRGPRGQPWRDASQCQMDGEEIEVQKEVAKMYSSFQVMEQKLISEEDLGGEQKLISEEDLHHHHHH

B1: H4H1321P (antibody, V domains shown)
VH: QVQLVESGGGVVQPGRSLRLSCAASGFTFSSYDMHWVRQAPGKGLEWVAVISSDGRDKYYVDSVKGRFTISRDNSKNTLYLQMNSLRAEDTAVYYCAKEMVYYDILTGYHNYYGMDVWGQGTTVTVS
VL: DIQMTQSPSSLSASVGDRVTITCRASQGINNYLAWFQQKPGKAPKSLIHTASSLQSGVPSKFSGSGSGTDFTLTISSLQPEDFATYYCQQYNTYPLTFGGGTKVEIK
notes: Fully human anti-GCGR antibody; the controls are called isotype-matched hIgG4
B2: H4H1339P (antibody, V domains shown)
VH: EVQLVESGGGMVQPGGSLRLSCAASGFTSSNYDMHWVRQATGKGLEWVSSIDTAGDTYYPDSVKGRFIISRENAKNSLYLQMNSLRAGDTAVYYCTREPRNYEILTGHYHYHGMDIWGQGTTVTVS
VL: AIQMTQSPSSLSASVGDRVTITCRASQAIRNDLGWYQQKPGKAPKLLIYTAFSLQSGVPSRFSGSKSGTDFTLTISSLQPEDFATYYCLQDYTNPRTFGQGTKVEIK
notes: as for B1
B3: H4H1331P (antibody, V domains shown)
VH: QVQLVESGGGVVQPGRSLRLSCAASGFTFSNFGMHWVRQAPGKGLEWVAVIWFDEIDKYYADSVKGRFTISRDNSKNTLYPQMNSLRAEDTAVYYCAREDYDILTGYYYAMDVWGQGTTVTVS
VL: DIQMTQSPSSLSASVGDRVTITCRASQGIKNDLGWYQQKPGKAPKRLIYAASRLQSGVPSRFSGSGSGTEFTLTISSLQPEDFGTYYCLQHNSHPTFGQGTKVEIK
notes: as for B1

These binders were tested against human GCGR (full-length, on HEK293 reporter cells) (human, UniProt P47871 27-477) (assay: cell-based or functional assay).
Chain of human GCGR (full-length, on HEK293 reporter cells) (P47871 27-477): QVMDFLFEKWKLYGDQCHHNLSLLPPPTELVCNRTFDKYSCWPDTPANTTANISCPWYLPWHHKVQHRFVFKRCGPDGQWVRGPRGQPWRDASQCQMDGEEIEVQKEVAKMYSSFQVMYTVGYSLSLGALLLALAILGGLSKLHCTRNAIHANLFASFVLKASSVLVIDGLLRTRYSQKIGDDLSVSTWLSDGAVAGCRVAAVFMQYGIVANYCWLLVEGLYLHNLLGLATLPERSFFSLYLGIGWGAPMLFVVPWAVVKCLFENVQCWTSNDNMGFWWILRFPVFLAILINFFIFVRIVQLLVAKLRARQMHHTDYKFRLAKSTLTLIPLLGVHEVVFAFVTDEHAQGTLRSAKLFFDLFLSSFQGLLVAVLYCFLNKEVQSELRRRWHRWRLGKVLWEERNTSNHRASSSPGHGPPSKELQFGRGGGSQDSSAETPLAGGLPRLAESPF

First: B1
Second: B2
The “IC50, inhibition of 100 pM GCG-stimulated luciferase activity, hGCGR reporter cells” value of the first is lower: 0.27 nM for the first, 0.46 nM for the second.

With B3 the “IC50, inhibition of 100 pM GCG-stimulated luciferase activity, hGCGR reporter cells” value was 0.66 nM.

Target: T1, monkey (Macaca fascicularis) GCGR …
Test: cell-based or functional assay

Going from B1 to B2, the “IC50, inhibition of 100 pM GCG-stimulated luciferase activity, mfGCGR reporter cells” value falls from 4.03 nM to 2.85 nM.

With B3 the “IC50, inhibition of 100 pM GCG-stimulated luciferase activity, mfGCGR reporter cells” value was 8.29 nM.

The binders below were run against mouse GCGR (full-length, on HEK293 reporter cells) (mouse, UniProt Q61606 27-485) (assay: cell-based or functional assay).
Chain of mouse GCGR (full-length, on HEK293 reporter cells) (Q61606 27-485 limits assumed): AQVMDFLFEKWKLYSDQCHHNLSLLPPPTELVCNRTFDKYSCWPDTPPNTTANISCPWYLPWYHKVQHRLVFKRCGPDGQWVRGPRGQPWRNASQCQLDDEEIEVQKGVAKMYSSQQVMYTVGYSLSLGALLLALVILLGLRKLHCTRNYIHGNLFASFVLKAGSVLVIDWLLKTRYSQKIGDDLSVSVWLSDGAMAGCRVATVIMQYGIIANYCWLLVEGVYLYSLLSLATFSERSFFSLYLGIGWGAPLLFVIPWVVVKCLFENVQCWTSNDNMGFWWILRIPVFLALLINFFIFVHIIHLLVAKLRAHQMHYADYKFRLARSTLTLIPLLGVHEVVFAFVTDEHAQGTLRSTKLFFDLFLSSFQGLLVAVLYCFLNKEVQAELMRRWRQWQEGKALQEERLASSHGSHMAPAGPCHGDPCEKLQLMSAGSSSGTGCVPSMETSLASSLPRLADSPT

Going from B1 to B2, the “IC50, inhibition of 100 pM GCG-stimulated luciferase activity, mGCGR reporter cells” value rises from 1.13 nM to 1.6 nM.

B3 was tested, and the “IC50, inhibition of 100 pM GCG-stimulated luciferase activity, mGCGR reporter cells” value was 1.62 nM.

These binders were tested against rat GCGR (full-length, on transiently transfected HEK293 reporter cells) (rat, UniProt P30082 27-485) (assay: cell-based or functional assay).
Chain of rat GCGR (full-length, on transiently transfected HEK293 reporter cells) (P30082 27-485 limits assumed): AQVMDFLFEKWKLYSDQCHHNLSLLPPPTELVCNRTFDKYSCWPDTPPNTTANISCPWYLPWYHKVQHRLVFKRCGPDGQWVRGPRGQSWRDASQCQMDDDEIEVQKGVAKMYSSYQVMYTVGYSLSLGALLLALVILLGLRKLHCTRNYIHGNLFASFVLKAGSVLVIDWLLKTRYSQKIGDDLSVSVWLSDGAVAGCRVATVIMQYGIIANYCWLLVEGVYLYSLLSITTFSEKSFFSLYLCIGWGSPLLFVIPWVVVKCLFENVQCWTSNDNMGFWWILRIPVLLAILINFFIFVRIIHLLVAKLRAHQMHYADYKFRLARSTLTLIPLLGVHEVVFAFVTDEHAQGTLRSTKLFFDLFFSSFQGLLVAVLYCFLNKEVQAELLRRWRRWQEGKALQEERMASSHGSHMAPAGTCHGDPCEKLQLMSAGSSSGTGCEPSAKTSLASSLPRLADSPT

Compared with B1, B2 is lower in “IC50, inhibition of 100 pM GCG-stimulated luciferase activity, rat GCGR reporter cells” value: 1.21 nM for the first, 0.97 nM for the second.

B3 was tested, and the “IC50, inhibition of 100 pM GCG-stimulated luciferase activity, rat GCGR reporter cells” value was 3.87 nM.

Target: T2, hGCGR-mmh
Test: SPR Biacore T100, 25C, mAb captured, antigen flowed
Protocol: (§1) Measurements were conducted on a T100 Biacore instrument. Antibodies were captured onto the Biacore sensor chip surface via a covalently-linked anti-human kappa antibody capture surface, and the soluble GCGR proteins were applied to the surface either in a monovalent (hGCGR expressed with a myc-myc-hexa-histidine C-terminal tag) or bivalent (hGCGR and MfGCGR expressed with an N-terminal Fc fusion) format.
(§2) Binding dissociation equilibrium constants and dissociative half-lives were calculated from the kinetic rate constants as: KD=kd/kₐ; t_{1/2}=(In2/kd).

Going from B1 to B2, the Kd falls from 3.54 nM to 0.825 nM (4.3-fold).

For B3, the Kd was 0.17 nM.

Going from B1 to B2, the “T½” value rises from 0.05 h to 0.367 h (7.3-fold).

With B3 the “T½” value was 1.73 h.

Compared with B1, B2 is 7-fold lower in koff: 0.00374 s⁻¹ for the first, 0.000532 s⁻¹ for the second.

B3 was tested, and the koff was 0.000111 s⁻¹.

Compared with B1, B2 is 1.6-fold lower in kon: 1.06e+06 M⁻¹ s⁻¹ for the first, 645000 M⁻¹ s⁻¹ for the second.

With B3 the kon was 657000 M⁻¹ s⁻¹.

These binders were tested against T3, hGCGR-hFc (human) in the same assay as above.
T3 construct: also called REGN316
Protocol: as §1, §2

T3 sequence (chain, as listed by the source limits assumed): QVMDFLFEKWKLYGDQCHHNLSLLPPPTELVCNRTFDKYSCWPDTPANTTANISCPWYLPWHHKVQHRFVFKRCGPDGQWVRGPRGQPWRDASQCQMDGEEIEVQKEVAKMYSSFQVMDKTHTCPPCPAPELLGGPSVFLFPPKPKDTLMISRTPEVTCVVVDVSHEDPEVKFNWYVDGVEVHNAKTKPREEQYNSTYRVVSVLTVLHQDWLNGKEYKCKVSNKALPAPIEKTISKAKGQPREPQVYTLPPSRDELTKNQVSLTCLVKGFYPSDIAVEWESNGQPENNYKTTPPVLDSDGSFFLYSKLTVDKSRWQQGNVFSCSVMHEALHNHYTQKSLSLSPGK

Going from B1 to B2, the Kd falls from 0.238 nM to 0.0618 nM (3.9-fold).

B3 was tested, and the Kd was 0.0202 nM.

Going from B1 to B2, the “T½” value rises from 0.683 h to 3.1 h (4.5-fold).

For B3, the “T½” value was 12.5 h.

Going from B1 to B2, the koff falls from 0.000285 s⁻¹ to 6.2e-05 s⁻¹ (4.6-fold).

Binder B3 has a koff of 1.54e-05 s⁻¹.

B1 and B2 are within 1.5-fold of each other in kon: 1.2e+06 M⁻¹ s⁻¹ for the first, 1e+06 M⁻¹ s⁻¹ for the second.

In the case of B3, the kon is reported as 760000 M⁻¹ s⁻¹.

These binders were tested against T4, mfGCGR-hFc (cynomolgus monkey (Macaca fascicularis)) in the same assay as above.
T4 construct: also called mfGCGR-N-terminal hFc
Protocol: as §1, §2

T4 sequence (chain, as listed by the source limits assumed): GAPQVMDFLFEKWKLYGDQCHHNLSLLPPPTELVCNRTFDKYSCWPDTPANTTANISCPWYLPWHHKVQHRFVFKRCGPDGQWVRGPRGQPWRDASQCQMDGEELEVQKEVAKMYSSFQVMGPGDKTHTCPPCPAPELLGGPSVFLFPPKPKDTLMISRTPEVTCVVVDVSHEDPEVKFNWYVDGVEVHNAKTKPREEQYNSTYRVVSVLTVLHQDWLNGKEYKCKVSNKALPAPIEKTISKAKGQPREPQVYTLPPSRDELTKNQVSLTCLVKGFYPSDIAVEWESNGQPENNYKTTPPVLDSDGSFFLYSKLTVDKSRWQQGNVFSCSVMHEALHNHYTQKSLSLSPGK

B1 and B2 are within 1.5-fold of each other in Kd: 0.0238 nM for the first, 0.0182 nM for the second.

B3 showed a Kd of 0.0069 nM.

First: B1
Second: B2
The “T½” value of the first is 1.8-fold lower: 4.6 h for the first, 8.43 h for the second.

B3 was tested, and the “T½” value was 23.7 h.

First: B1
Second: B2
The koff of the first is 1.8-fold higher: 4.18e-05 s⁻¹ for the first, 2.28e-05 s⁻¹ for the second.

B3 showed a koff of 8.12e-06 s⁻¹.

B1 and B2 are within 1.5-fold of each other in kon: 1.76e+06 M⁻¹ s⁻¹ for the first, 1.26e+06 M⁻¹ s⁻¹ for the second.

B3 gave a kon of 1.17e+06 M⁻¹ s⁻¹.

Target: T2, hGCGR-mmh
Test: SPR Biacore T100, 37C, mAb captured, antigen flowed
Protocol: as §1, §2

Compared with B1, B2 is 2.6-fold lower in Kd: 12.8 nM for the first, 4.91 nM for the second.

B3 was tested, and the Kd was 0.533 nM.

First: B1
Second: B2
The “T½” value of the first is 3-fold lower: 0.0167 h for the first, 0.05 h for the second.

B3 was tested, and the “T½” value was 0.367 h.

Going from B1 to B2, the koff falls from 0.0202 s⁻¹ to 0.0043 s⁻¹ (4.7-fold).

B3 showed a koff of 0.000519 s⁻¹.

Compared with B1, B2 is 1.8-fold lower in kon: 1.58e+06 M⁻¹ s⁻¹ for the first, 876000 M⁻¹ s⁻¹ for the second.

For B3, the kon was 973000 M⁻¹ s⁻¹.

The binders below were run against T3, hGCGR-hFc in the same assay as above.
Protocol: as §1, §2

Going from B1 to B2, the Kd rises from 0.077 nM to 0.318 nM (4.1-fold).

For B3, the Kd was 0.0779 nM.

First: B1
Second: B2
The “T½” value of the first is 3.4-fold higher: 1.77 h for the first, 0.517 h for the second.

For B3, the “T½” value was 2.12 h.

Compared with B1, B2 is 3.4-fold higher in koff: 0.000109 s⁻¹ for the first, 0.000371 s⁻¹ for the second.

For B3, the koff was 9.12e-05 s⁻¹.

B1 and B2 are within 1.5-fold of each other in kon: 1.41e+06 M⁻¹ s⁻¹ for the first, 1.17e+06 M⁻¹ s⁻¹ for the second.

For B3, the kon was 1.17e+06 M⁻¹ s⁻¹.

The binders below were run against T4, mfGCGR-hFc in the same assay as above.
Protocol: as §1, §2

First: B1
Second: B2
The Kd of the first is 1.8-fold lower: 0.0347 nM for the first, 0.0631 nM for the second.

B3 gave a Kd of 0.0257 nM.

B1 and B2 are within 1.5-fold of each other in “T½” value: 2.53 h for the first, 1.8 h for the second.

With B3 the “T½” value was 4.68 h.

B1 and B2 are within 1.5-fold of each other in koff: 7.59e-05 s⁻¹ for the first, 0.000107 s⁻¹ for the second.

B3 was tested, and the koff was 4.12e-05 s⁻¹.

B1 and B2 are within 1.5-fold of each other in kon: 2.19e+06 M⁻¹ s⁻¹ for the first, 1.69e+06 M⁻¹ s⁻¹ for the second.

B3 gave a kon of 1.6e+06 M⁻¹ s⁻¹.
